Test results reported in patent publication CN107793479A (SHANGHAI JIBEI BIOLOGICAL TECH CO LTD, dated 2018).
Residue numbers refer to the chain shown, from its start.

Target: T1, CD19抗原 (B lymphocyte antigen CD19) (human, UniProt P15391 20-291, limits assumed, biotin label in Examples 2-4 (site not stated))
T1 construct: also called CD19-his; CD19-his-biotin; not shown: his tag
T1 sequence (looked up): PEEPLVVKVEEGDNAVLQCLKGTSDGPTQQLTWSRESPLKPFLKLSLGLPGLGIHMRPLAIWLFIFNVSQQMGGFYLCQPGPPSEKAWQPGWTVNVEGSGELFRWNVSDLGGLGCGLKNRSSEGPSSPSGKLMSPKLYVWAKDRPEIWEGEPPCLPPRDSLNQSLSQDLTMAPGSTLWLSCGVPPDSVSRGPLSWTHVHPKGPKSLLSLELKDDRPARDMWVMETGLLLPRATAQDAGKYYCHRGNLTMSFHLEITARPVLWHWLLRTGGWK
Assay: ELISA of periplasmic extract dilutions on a CD19-coated plate, OD450

B1: Combo-5 (scFv in periplasmic extract) (scFv)
scFv: EVKLQESGPGLVAPSQSLSVTCTVSGWSLEDYGVSWIRQSPRKGLEWLGGIIGSQTTYYLAGLKSRLTIIKDNSKSQVFLKMNSLQTDDTAIYYCAKHRYYGGSFDMDYWGQGTSVTVSSGGGGSGGGGSGGGGSDIQMTQTTSSLSASLGDRVTISCRASQDISKYLNWYQQKPDGTVKLLIYHTSRLHSGVPSRFSGSGSGTDYSLTISNLEQEDIATYFCQQGNTLPYTFGGGTKLEIT
notes: Soluble scFv in E. coli periplasmic extract (PPE), not purified
binding result: binds

B2: Combo-9 (scFv in periplasmic extract) (scFv)
scFv: EVKLQESGPGLVAPSQSLSVTCTVSGVSLPDYGVSWIRQPPRKGLEWLGVIWGSETTYYNSALKSRLTIIKDNSKSQVFLKMNSLQTDDTAIYYCAKHYYYGGSYAMDYWGQGTSVTVSSGGGGSGGGGSGGGGSDIQMTQTTSSLSASLGDRVTISCRASQPIRRYLNWYQQKPDGTVKLLIYQTSRLAWGVPSRFSGSGSGTDYSLTISNLEQEDIATYFCQQGKKAPLTFGGGTKLEIT
notes: as for B1
binding result: binds

B3: Combo-14 (scFv in periplasmic extract) (scFv)
scFv: B2 scFv with P40S, Q162M, P163D, R165K, R166K, Q185H, A190H, W191S
notes: as for B1
binding result: binds

B4: Combo-13 (scFv in periplasmic extract) (scFv)
scFv: B2 scFv with P40S, Q162M, P163D, R165K, R166K
notes: as for B1
binding result: binds

B5: Combo-8 (scFv in periplasmic extract) (scFv)
scFv: B1 scFv with G50V, I52W, Q55E, L60N, A61S, G62A, R99W, D106A
notes: as for B1
binding result: binds

B6: Combo-6 (scFv in periplasmic extract) (scFv)
scFv: B1 scFv with G50V, I52W, Q55E, L60N, A61S, G62A
notes: as for B1
binding result: binds

B7: Combo-7 (scFv in periplasmic extract) (scFv)
scFv: B1 scFv with R99W, D106A
notes: as for B1
binding result: binds

B8: Combo-10 (scFv in periplasmic extract) (scFv)
scFv: B2 scFv with Q185H, A190H, W191S
notes: as for B1
binding result: binds
